We go through seven molecules from US20220275059A1 (HARBOUR ANTIBODIES, published 2022).

Test [1] concerns the target T1, MERS-S1^B domain (receptor binding domain) (MERS-CoV EMC isolate, UniProt K9N5Q8 358-588). Description: see FIGS. 5(A) and 29(A).
In test [2] the target is T1, MERS-S1^B domain (receptor binding …). Description: see FIG. 5A.
Test [3] has as its target T2, MERS-CoV S S1 subunit (MERS-S1) (MERS-CoV EMC isolate, UniProt K9N5Q8 19-748). In words: ForteBio Octet / BLI (FIG. 2F and 3A). (In general: In BLI a coated tip is dipped into the sample, and binding shifts an interference pattern.)
In another test the target is T3, MERS-S1^A domain (MERS-CoV EMC isolate, UniProt K9N5Q8 19-357).
T3 sequence: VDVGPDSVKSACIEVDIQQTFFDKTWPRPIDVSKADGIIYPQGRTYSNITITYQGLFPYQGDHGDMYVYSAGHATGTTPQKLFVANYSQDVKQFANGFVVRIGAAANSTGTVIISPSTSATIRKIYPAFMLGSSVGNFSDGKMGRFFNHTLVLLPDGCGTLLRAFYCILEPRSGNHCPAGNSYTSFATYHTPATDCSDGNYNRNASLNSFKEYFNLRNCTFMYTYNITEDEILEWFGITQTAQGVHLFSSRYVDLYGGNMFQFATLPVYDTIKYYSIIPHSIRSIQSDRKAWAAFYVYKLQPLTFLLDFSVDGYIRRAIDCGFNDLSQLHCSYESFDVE
Description: ELISA on coated MERS-S1^A, OD450 [D].

In test [4] the target is T4, MERS-S on pseudotyped VSV particles (MERS-S carrying a 16-a.a. cytoplasmic tail truncation) (MERS-CoV, UniProt K9N5Q8 18-1337). Description: cell-based or functional assay.
The target in test [5] is T4, MERS-S on pseudotyped VSV particles …. Description: cell-based or functional assay. The source holds these as a separate data set.
The target in test [6] is T1, MERS-S1^B domain (receptor binding …). Description: ELISA on coated MERS-S1^B, OD450 [D].
The target of test [7] is MERS-S2 ectodomain (MERS-S2^ecto) (MERS-CoV EMC isolate, UniProt K9N5Q8 752-1262).
Test [8] has as its target T5, NL63 coronavirus spike protein (HCoV-NL63, UniProt Q6Q1S2 16-1291).
T5 sequence: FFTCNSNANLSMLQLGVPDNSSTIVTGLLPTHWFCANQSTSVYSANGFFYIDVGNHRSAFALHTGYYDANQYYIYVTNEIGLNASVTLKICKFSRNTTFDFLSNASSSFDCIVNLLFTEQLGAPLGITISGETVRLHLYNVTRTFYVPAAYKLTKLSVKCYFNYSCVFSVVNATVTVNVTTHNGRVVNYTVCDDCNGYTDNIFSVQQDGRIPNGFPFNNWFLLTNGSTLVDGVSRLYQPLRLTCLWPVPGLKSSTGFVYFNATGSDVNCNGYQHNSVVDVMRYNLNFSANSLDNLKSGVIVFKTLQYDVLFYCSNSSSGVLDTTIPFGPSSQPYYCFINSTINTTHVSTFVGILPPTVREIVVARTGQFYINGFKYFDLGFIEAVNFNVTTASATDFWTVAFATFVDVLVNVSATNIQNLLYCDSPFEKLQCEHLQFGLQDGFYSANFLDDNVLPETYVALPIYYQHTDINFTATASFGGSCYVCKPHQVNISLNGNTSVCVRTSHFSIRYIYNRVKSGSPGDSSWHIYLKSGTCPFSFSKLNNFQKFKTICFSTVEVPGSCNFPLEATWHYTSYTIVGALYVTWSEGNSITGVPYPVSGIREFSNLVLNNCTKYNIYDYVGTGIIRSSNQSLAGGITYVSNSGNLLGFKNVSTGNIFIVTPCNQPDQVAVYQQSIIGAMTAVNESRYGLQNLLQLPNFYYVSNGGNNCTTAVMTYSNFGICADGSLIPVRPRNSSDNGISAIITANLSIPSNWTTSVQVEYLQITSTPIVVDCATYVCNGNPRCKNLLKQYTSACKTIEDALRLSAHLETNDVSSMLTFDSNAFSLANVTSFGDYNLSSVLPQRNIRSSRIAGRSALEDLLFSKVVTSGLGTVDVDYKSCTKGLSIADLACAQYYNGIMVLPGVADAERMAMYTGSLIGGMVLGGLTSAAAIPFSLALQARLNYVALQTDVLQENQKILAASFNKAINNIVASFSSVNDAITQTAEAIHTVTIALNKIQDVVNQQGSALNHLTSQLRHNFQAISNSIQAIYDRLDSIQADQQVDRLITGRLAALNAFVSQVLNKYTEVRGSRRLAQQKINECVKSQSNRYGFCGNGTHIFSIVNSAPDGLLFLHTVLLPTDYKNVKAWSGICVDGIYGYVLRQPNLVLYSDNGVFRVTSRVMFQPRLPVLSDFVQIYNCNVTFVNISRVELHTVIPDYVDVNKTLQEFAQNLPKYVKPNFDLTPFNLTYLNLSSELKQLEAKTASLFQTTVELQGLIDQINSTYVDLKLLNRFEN
In words: ELISA on NL63 Secto.

The target of another test is peptide 10. Description: ELISA on coated overlapping MERS-S2 peptides, A450 [D00032 Fig. 14(B].
A further test deals with peptide 11. The description is as above.
Test [9] addresses T2, MERS-CoV S S1 subunit (MERS-S1). Description: ELISA on coated MERS-S1, OD450 [D].
For test [10] the target is unchanged. In words: MERS-S1 specific ELISA. For orientation: In an ELISA, binding on a coated surface is turned into a signal by an enzyme label.
Test [11] has the same target. In words: see FIG. 29A.

“And” between values parts separate entries of the source, which are not always exact repeats. Equal values may be shown once.

For orientation: Kd means the constant that tells how readily two partners part at equilibrium. The EC50 (read off the curve) is the concentration needed to bring the measured effect to its halfway point. Low values mean greater potency, high ones weaker potency.

B1: 7.7a9 (antibody, V domains shown)
VH: EVQLLESGGGSVQPGGSLRLSCEASGFTFNTYPMSWVRQAPGKGLEWVSGISGSGDRTFYEDSVKGRFTISRDNSKNTLYLQMHSLRGEDTAVYYCAKDLGGEGYWGQGTLVTVSS
VL: QAVVTQESALTTSPGETVTLTCRSSTGAVTTSNYANWVQKKPDHLFTGLIGGTNNRAPGVPARFSGSLIGDKAALTITGAQTEDEAIYFCALWYSNHSVFGGGTKLTVLG
In the case of B1, the binding result in [1] is given as “binds”.

B2: 7.4f3 (antibody, V domains shown)
VH: EVQLLESGGGLVQPGGSLRLSCEDSGVTFSSNPMSWVRQGPGKGLEWVSGISGSGDRTFYEDSVKGRFTISRDNSKNTLYLQMNSLRAEDTAVYYCAKDLGGEGNWGQGTLVTVSS
VL: QAVVTQESALTTSPGETVTLTCRSSTGAVTISNYANWVQEKPDHSFTGLIGGTNNRAPGVPARFSGSLIGDKAALTITGAQTEDEAIYFCALWYNNQSVFGGGTKLTVLG
With B2, the binding result in [2] is reported as “binds”.

B3: 4.6e10 (antibody, V domains shown)
VH: QVQLVESGGGVVQPGRSLRLSCTASGFTFTYYGLHWVRQAPGKGLEWVAVIWYDGSNQYYADSVQGRFTISRDNSKNTLYLQMNSLRAEDTAVYYCAREGLGAVAGYYFDYWGQGTLVTVSA
VL: DIQMTQSPSSLSASVRDRVTITCRASQIISNYLNWYQQKPGKAPKLLIYAASSLQSGVPSRFSGSGSGTDFTLTISSLQPEDFATYFCQQSYSTPFAFGPGTKVDIKR
As to B3, in [3], the Kd is ~0.36 nM. Moreover, in the test with MERS-S1^A domain, the binding result is on record as “no binding (tested: about 5x10^5 ng/ml)”. Moreover, the “IC50, neutralisation of MERS-S VSV pseudovirus on Vero cells” value (shortened to “IC50, neutralisation”) in test [4] was 0.048 µg/mL. Besides, in test [5], the “IC50, MERS-S pseudovirus infection (human IgG1)” value was determined as 0.32 nM; the “IC50, neutralization of MERS-S pseudovirus infectivity (H2L2)” value is ~0.0313 µg/mL; the “IC50, neutralization of MERS-S pseudovirus infectivity (human IgG1)” value was ~0.07 µg/mL.

B4: 1.6c7 (antibody, V domains shown)
VH: QVQLQQSGPGLVKPSQTLSLTCAISGDSVSSDSAAWNWIRQSPSRGLEWLGRTYFRSKWNNHYAVSVKSRITINPDTSKNQFSLLLNPVTPEDTAVYYCARATLARGALDYWGQGTLVTVSS
VL: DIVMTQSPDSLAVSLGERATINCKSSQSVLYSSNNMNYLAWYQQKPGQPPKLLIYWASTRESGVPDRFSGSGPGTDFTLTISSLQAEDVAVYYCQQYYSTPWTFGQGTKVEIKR
As to B4, the binding result is reported as “no binding (tested: about 5x10^5 ng/ml)” in [6]; “no binding (tested: about 5x10^5 ng/ml)” in the test with MERS-S1^A domain; “no binding (tested: 25.00 (no unit printed))” in test [8]; “no binding” with peptide 10; “no binding” with peptide 11; “no binding (tested: about 5x10^5 ng/ml)” in test [9]. Besides, the “EC50 (read off the curve)” value in test [7] is ~0.03 µg/mL. For the same molecule, the “IC50, neutralisation” value in [4] is 0.367 µg/ml and 2.45 nM. Besides, the “IC50, MERS-S pseudovirus (human IgG1)” value in test [5] amounted to 2.45 nM. Moreover, the “IC50, neutralization of MERS-S pseudovirus infectivity (1.6c7 antibody, H2L2)” value in [5] is ~0.59 µg/mL.

B5: 5F1 heavy chain-only antibody (antibody, V domains shown)
VH: EVQLVESGGGLVQPGGSLRLSCAASGFTFSSYWMHWVRQAPGKGLVWVSRINSDGSSTSYADSVKGRFTISRDNAKNTLYLQMNSLRAEDTAVYYCGNPYFDYWGQGTLVTVSS
For the molecule B5, the binding result in test [10] is reported as “binds”.

B6: 1.8e5 (antibody, V domains shown)
VH: QVQLQESGPGLVKPSGTLSLTCAVSGGSISSNRWWTWVRRSPGKGLEWIGEIYHSGSTNYNPSLKSRVTISVDRSKNQFSLKLSSVTAADTAVYYCASLTLIWFGEKAFDIWGQGTMVTVSS
VL: EIVMTQSPATLSVSPGERATLSCGASPSVSTNLAWYQQRPGQAPRLLIYGISTRAAGIPARFSGTGSGTEFTLTISSLQSEDFALYYCQQYNNWPYTFGQGTKLEIKR
Regarding B6, the Kd in test [3] was ~0.32 nM. Also, the binding result with MERS-S1^A domain is given as “no binding (tested: about 5x10^5 ng/ml)”. Moreover, in test [4], the “IC50, neutralisation” value is 1.5 µg/mL. Also, in test [5], the “IC50, MERS-S pseudovirus infection (human IgG1)” value turned out to be 10 nM; the “IC50, neutralization of MERS-S pseudovirus infectivity (H2L2)” value was ~0.0903 µg/mL; the “IC50, neutralization of MERS-S pseudovirus infectivity (human IgG1)” value is ~2.59 µg/mL.

B7: 7.8h1 (antibody, V domains shown)
VH: QVQLVQSGAEVKKPGASVKVSCKASGYTFTSYDINWVRQATGQGLEWMGWMNPISGNTGYAQKFQGRVTMTRNTSRSTAYMELSSLRSEDTAVYYCARGQWLFDYWGQGTLVTVSS
VL: DIQMTQSPSTLSASIGDRVTITCRASQTISSWLAWYQQKPGKAPKLLIYKASSLESGVPSRFSGSGSGTEFTLTISSLQPDDFATYYCQQYNFYSYTFGQGTKLEIRR
On to B7, for which, in test [11], the binding result is listed as “binds”.
